Here are results for eleven molecules from US7951356B1, “Tissue factor compositions and kits for coagulation and tumor treatment” (Board of Regents, The University of Texas System, priority 1997, dated 2011).

B1: Fab′-H6—N′-cys-tTF219 (conjugate)
chain: HHHHHHAMALVPRGSCGTTNTVAAYNLTWKSTNFKTILEWEPKPVNQVYTVQISTKSGDWKSKCFYTTDTECDLTDEIVKDVKQTYLARVFSYPAGNVESTGSAGEPLYENSPEFTPYLETNLGQPTIQSFEQVGTKVNVTVEDERTLVRRNNTFLSLRDVFGKDLIYTLYYWKSSSSGKKTAKTNTNEFLIDVDKGENYCFSVQAVIPSRTVNRKSTDSPVECMGQEKGEFRE
modifications: left off: another chain or arm of the molecule; large carriers
B2: IgG-H6—N′-cys-tTF219 (conjugate)
chain: B1 chain
modifications: left off: large carriers
B3: “standard” tTF: “standard” tTF219 preparation obtained from Dr. Thomas Edgington (The Scripps Research Institute) (protein)
chain: GSGTTNTVAAYNLTWKSTNFKTILEWEPKPVNQVYTVQISTKSGDWKSKCFYTTDTECDLTDEIVKDVKQTYLARVFSYPAGNVESTGSAGEPLYENSPEFTPYLETNLGQPTIQSFEQVGTKVNVTVEDERTLVRRNNTFLSLRDVFGKDLIYTLYYWKSSSSGKKTAKTNTNEFLIDVDKGENYCFSVQAVIPSRTVNRKSTDSPVECMGQEKGEFRE
B4: tTF221-cys-C′: tTF221-cys-C′, tested beside H6-tTF221-cys-C′ (FIG. 7) (protein)
chain: GSGTTNTVAAYNLTWKSTNFKTILEWEPKPVNQVYTVQISTKSGDWKSKCFYTTDTECDLTDEIVKDVKQTYLARVFSYPAGNVESTGSAGEPLYENSPEFTPYLETNLGQPTIQSFEQVGTKVNVTVEDERTLVRRNNTFLSLRDVFGKDLIYTLYYWKSSSSGKKTAKTNTNEFLIDVDKGENYCFSVQAVIPSRTVNRKSTDSPVECMGQEKGEFREIFC
B5: tTF220-cys-C′: tTF220-cys-C′, tested beside H6-tTF220-cys-C′ (FIG. 6) (protein)
chain: GSGTTNTVAAYNLTWKSTNFKTILEWEPKPVNQVYTVQISTKSGDWKSKCFYTTDTECDLTDEIVKDVKQTYLARVFSYPAGNVESTGSAGEPLYENSPEFTPYLETNLGQPTIQSFEQVGTKVNVTVEDERTLVRRNNTFLSLRDVFGKDLIYTLYYWKSSSSGKKTAKTNTNEFLIDVDKGENYCFSVQAVIPSRTVNRKSTDSPVECMGQEKGEFREIC
B6: H6-tTF220-cys-C′: tTF219 mutated to carry Ile-Cys after amino acid 219; SEQ ID NO:6 (protein)
chain: HHHHHHAMALVPRGSGTTNTVAAYNLTWKSTNFKTILEWEPKPVNQVYTVQISTKSGDWKSKCFYTTDTECDLTDEIVKDVKQTYLARVFSYPAGNVESTGSAGEPLYENSPEFTPYLETNLGQPTIQSFEQVGTKVNVTVEDERTLVRRNNTFLSLRDVFGKDLIYTLYYWKSSSSGKKTAKTNTNEFLIDVDKGENYCFSVQAVIPSRTVNRKSTDSPVECMGQEKGEFREIC
B7: H6-tTF221-cys-C′: tTF219 mutated to carry Ile-Phe-Cys after amino acid 219; SEQ ID NO:7 (protein)
chain: HHHHHHAMALVPRGSGTTNTVAAYNLTWKSTNFKTILEWEPKPVNQVYTVQISTKSGDWKSKCFYTTDTECDLTDEIVKDVKQTYLARVFSYPAGNVESTGSAGEPLYENSPEFTPYLETNLGQPTIQSFEQVGTKVNVTVEDERTLVRRNNTFLSLRDVFGKDLIYTLYYWKSSSSGKKTAKTNTNEFLIDVDKGENYCFSVQAVIPSRTVNRKSTDSPVECMGQEKGEFREIFC
B8: H6-tTF221-cys-C′ dimer: chemically conjugated dimer of SEQ ID NO:7 (protein)
chain: B7 chain
modifications: chemically conjugated dimer
B9: H6-tTF219-cys-C′: tTF219 with (His)6 and a Cys after amino acid 219; SEQ ID NO:3 (protein)
chain: HHHHHHAMALVPRGSGTTNTVAAYNLTWKSTNFKTILEWEPKPVNQVYTVQISTKSGDWKSKCFYTTDTECDLTDEIVKDVKQTYLARVFSYPAGNVESTGSAGEPLYENSPEFTPYLETNLGQPTIQSFEQVGTKVNVTVEDERTLVRRNNTFLSLRDVFGKDLIYTLYYWKSSSSGKKTAKTNTNEFLIDVDKGENYCFSVQAVIPSRTVNRKSTDSPVECMGQEKGEFREC
B10: H6—N′-cys-tTF219: tTF219 with (His)6 and a Cys in front of the N′-terminus; SEQ ID NO:2 (protein)
chain: B1 chain
B11: H6—N′ cys-tTF219 dimer: chemically conjugated dimer of SEQ ID NO:2 (protein)
chain: B1 chain
modifications: chemically conjugated dimer

In the first test the test system is factor X. Description: Factor Xa production assay (chromogenic substrate S-2765) with constructs localized on A20 cells. Particulars: presence of Factors II, VII and IX, B21-2/10H10, FIG. 17. The class given is biochemical. How it is done: The assay measures factor X to Xa conversion rate by means of a chromophore-generating substrate (S-2765) for factor Xa.
A20 cells (2×10^7 cells) were suspended in 10 ml medium containing 0.2% w/v sodium azide. To 2.5 ml cell suspension were added 6.8 μg of B21-2/10H10 “capture” bispecific antibody for 50 minutes at room temperature. The cells were washed and resuspended in 2.5 ml medium containing 0.2% w/v sodium azide. The tTF and immunoglobulin-tTF conjugates dissolved in the same medium were distributed in 100 μl volumes at a range of concentrations into wells of 96-well microtiter plates. To the wells was then added 100 μl of the cell/bispecific antibody suspension. The plates were incubated for 50 minutes at room temperature.
The plates were centrifuged, the supernatants were discarded and the cell pellets were resuspended in 250 μl of Wash Buffer (150 mM NaCl: 50 mM Tris-HCl, pH 8; 0.2% w/v bovine serum albumin). The cells were washed again and cells resuspended in 100 μl of a 12.5-fold dilution of Proplex T (Baxter, Inc.) containing Factors II, VII, IX and X in Dilution Buffer (Wash Buffer supplemented with 12.5 mM calcium chloride). Plates were incubated at 37° C. for 30 minutes. To each well was added Stop Solution (12.5 mM sodium ethylenediaminetetracetic acid (EDTA)) in wash buffer. Plates were centrifuged. […] The optical density of each solution was measured at 409 nm. […]
Take B1: the “activity at inducing Xa formation compared with H6—N′-cys-tTF219” value was “as active as H6—N′-cys-tTF219 itself”.

In the case of B2, the “fold less active than H6—N′-cys-tTF219 at inducing Xa formation” value is given as 2 fold.

The subject of the next test is citrated mouse plasma. Description: In vitro coagulation assay: tTF constructs localized on A20 lymphoma cells via bispecific antibody B21-2/10H10. The class given is cell-based. Particulars: A20 cells coated with B21-2/10H10; FIG. 5-8, 15. How it is done: This assay was used to verify that tTF, various derivatives and mutants thereof, and immunoglobulin-tTF conjugates acquire coagulation inducing activity once localized at a cell surface. A20 lymphoma cells (I-A^d positive) (2×10^6 cells/ml, 50 μl) were incubated for 1 h at room temperature with a bispecific antibody (50 μg/ml, 25 μl) consisting of a Fab′ arm of the B21-2 antibody directed against I-A^d linked to a Fab′ arm of the 10H10 antibody directed against a non-inhibitory epitope on tTF. The cells were washed at room temperature and varying concentrations of tTF, derivatives or mutants thereof, or immunoglobulin-tTF conjugates were added for 1 hour at room temperature. The bispecific antibody captures the tTF or tTF linked to immunoglobulin, bringing it into close approximation to the cell surface, where coagulation can proceed.
The cells were washed again at room temperature, resuspended in 75 μl of PBS and warmed to 37° C. […] The time for the first fibrin strands to form was recorded. Clotting time was plotted against tTF concentration and curves compared with standard curves prepared using standard tTF219 preparations.
In the case of B2, the “concentration applied to the cells at which plasma coagulated in 50 seconds” value (shortened to “concentration applied to the cells”) came to 5 nM.

Take B3: the “concentration applied to the cells” value came to 3 nM.

Take B4: the “concentration applied to the cells” value worked out at 0.5 nM.

In the case of B5, the “concentration applied to the cells” value was found to be 0.5 nM.

For the molecule B6, the “concentration applied to the cells” value was 0.5 nM.

For the molecule B7, the “concentration applied to the cells” value was determined as 0.5 nM.

In the case of B8, the “concentration applied to the cells” value was determined as 4 nM.

Consider B9, for which the “concentration applied to the cells” value was 3 nM.

The same test, now with this note: A20 cells coated with B21-2/10H10; FIG. 5-8, 15; listed as H6-tTF221-cys-C′ monomer.
Take B7: the “concentration applied to the cells” value is 1 nM.

Staying with this test, now noted: localized on A20 cells via B21-2/10H10.
For B2, the “fold less active than tTF219 at inducing coagulation of plasma” value is reported as 5 fold.

On to B8, for which the “fold less active than tTF219 at inducing coagulation of plasma” value turned out to be 4 fold.

Still in this test, the particulars now being: plasma coagulation.
Take B10: the “coagulation-inducing activity once localized on A20 cells via B21-2/10H10, in words (compared with tTF219)” value is on record as “as active as tTF”.

B11: the “coagulation-inducing activity once localized on A20 cells via B21-2/10H10, in words (compared with tTF219)” value is recorded as “as active as tTF219 itself”.

Consider B4, for which the “coagulation-inducing activity once localized on A20 cells via B21-2/10H10, in words (compared with tTF219)” value is “as active as tTF219”.

On to B5, for which the “coagulation-inducing activity once localized on A20 cells via B21-2/10H10, in words (compared with tTF219)” value is on record as “as active as tTF219”.

Regarding B6, the “coagulation-inducing activity once localized on A20 cells via B21-2/10H10, in words (compared with tTF219)” value is given as “as active as tTF219”.

Consider B7, for which the “coagulation-inducing activity once localized on A20 cells via B21-2/10H10, in words (compared with tTF219)” value is “as active as tTF219”.

Regarding B9, the “coagulation-inducing activity once localized on A20 cells via B21-2/10H10, in words (compared with tTF219)” value is recorded as “as active as tTF”.
